Consider 22 molecules from patent US20120253008A1 (Ablynx, published 2012).

Usually Kd stands for a measure of binding affinity in units of concentration. For orientation: koff means a measure of how fast the partners let go of each other. The kon is a measure of how fast the partners come together.

To fix the notation:
B1: 12A2 sv1-9GS-59C2-9GS-12A2 sv1 (VHH)
chain: DVQLVESGGGLVQPGGSLRLSCAASGRTFSYNPMGWFRQAPGKGRELVAAISRTGGSTYYPESVEGRFTISRDNAKRTVYLQMNSLRAEDTAVYYCAAAGVRAEQGRVRTLPSEYTFWGQGTQVTVSSGGGGSGGGSRDWDFDVFGGGTPVGGGGGGSGGGSEVQLVESGGGLVQPGGSLRLSCAASGRTFSYNPMGWFRQAPGKGRELVAAISRTGGSTYYPESVEGRFTISRDNAKRTVYLQMNSLRAEDTAVYYCAAAGVRAEQGRVRTLPSEYTFWGQGTQVTVSS
notes: also called vWF-0053; vWF 0053
B2: 12A2 sv1-AAA-12A2 sv1-9GS-59C2-9GS-59C2 (VHH)
chain: DVQLVESGGGLVQPGGSLRLSCAASGRTFSYNPMGWFRQAPGKGRELVAAISRTGGSTYYPESVEGRFTISRDNAKRTVYLQMNSLRAEDTAVYYCAAAGVRAEQGRVRTLPSEYTFWGQGTQVTVSSAAAEVQLVESGGGLVQPGGSLRLSCAASGRTFSYNPMGWFRQAPGKGRELVAAISRTGGSTYYPESVEGRFTISRDNAKRTVYLQMNSLRAEDTAVYYCAAAGVRAEQGRVRTLPSEYTFWGQGTQVTVSSGGGGSGGGSRDWDFDVFGGGTPVGGGGGGSGGGSRDWDFDVFGGGTPVGG
notes: also called vWF-0056; VWF0056
B3: vWF0054 (VHH)
single chain fusion protein: DVQLVESGGGLVQPGGSLRLSCAASGRTFSYNPMGWFRQAPGKGRELVAAISRTGGSTYYPESVEGRFTISRDNAKRTVYLQMNSLRAEDTAVYYCAAAGVRAEQGRVRTLPSEYTFWGQGTQVTVSSGGGGSGGGSRDWDFDVFGGGTPVGGGGGGSGGGSRDWDFDVFGGGTPVGGGGGGSGGGSEVQLVESGGGLVQPGGSLRLSCAASGRTFSYNPMGWFRQAPGKGRELVAAISRTGGSTYYPESVEGRFTISRDNAKRTVYLQMNSLRAEDTAVYYCAAAGVRAEQGRVRTLPSEYTFWGQGTQVTVSS
notes: also called 12A2 sv1-9GS-59C2-9GS-59C2-9GS-12A2 sv1
B4: 12A2_sv1-AAA-12A2_sv1 (VHH)
chain: DVQLVESGGGLVQPGGSLRLSCAASGRTFSYNPMGWFRQAPGKGRELVAAISRTGGSTYYPESVEGRFTISRDNAKRTVYLQMNSLRAEDTAVYYCAAAGVRAEQGRVRTLPSEYTFWGQGTQVTVSSAAAEVQLVESGGGLVQPGGSLRLSCAASGRTFSYNPMGWFRQAPGKGRELVAAISRTGGSTYYPESVEGRFTISRDNAKRTVYLQMNSLRAEDTAVYYCAAAGVRAEQGRVRTLPSEYTFWGQGTQVTVSS
notes: also called vWF-001; vWF-0001
B5: 2D3-9GS-56E4-MycHis (other)
chain: EVQLVESGGSLVQPGGSLRLSCAASGFTFDDYAMSWVRQVPGKGLEWVSSINWSGTHTDYADSVKGRFTISRNNANNTLYLQMNSLKSEDTAVYYCAKNWRDAGTTWFEKSGSAGQGTQVTVSSGGGGSGGGSAAARYWDYDVFGGGTPVGGAAAEQKLISEEDLNGAAHHHHHH
B6: 2D3-9GS-59F2-MycHis (other)
chain: EVQLVESGGSLVQPGGSLRLSCAASGFTFDDYAMSWVRQVPGKGLEWVSSINWSGTHTDYADSVKGRFTISRNNANNTLYLQMNSLKSEDTAVYYCAKNWRDAGTTWFEKSGSAGQGTQVTVSSGGGGSGGGSAAARYWDFDVFGGGTPVGGAAAEQKLISEEDLNGAAHHHHHH
B7: 2D3-9GS-59H12-MycHis (other)
chain: EVQLVESGGSLVQPGGSLRLSCAASGFTFDDYAMSWVRQVPGKGLEWVSSINWSGTHTDYADSVKGRFTISRNNANNTLYLQMNSLKSEDTAVYYCAKNWRDAGTTWFEKSGSAGQGTQVTVSSGGGGSGGGSAAARSWDFDVFGGGTPVGGAAAEQKLISEEDLNGAAHHHHHH
B8: 2D3-9GS-59C2-MycHis (other)
chain: EVQLVESGGSLVQPGGSLRLSCAASGFTFDDYAMSWVRQVPGKGLEWVSSINWSGTHTDYADSVKGRFTISRNNANNTLYLQMNSLKSEDTAVYYCAKNWRDAGTTWFEKSGSAGQGTQVTVSSGGGGSGGGSAAARDWDFDVFGGGTPVGGAAAEQKLISEEDLNGAAHHHHHH
B9: 2D3-9GS-56E4 (other)
chain: EVQLVESGGSLVQPGGSLRLSCAASGFTFDDYAMSWVRQVPGKGLEWVSSINWSGTHTDYADSVKGRFTISRNNANNTLYLQMNSLKSEDTAVYYCAKNWRDAGTTWFEKSGSAGQGTQVTVSSGGGGSGGGSRYWDYDVFGGGTPVGG
notes: untagged; Nanobody 2D3, 9GS linker, 56E4 without the two N-terminal alanines; also called 2D3-9GS-EXP56E4
B10: 2D3-9GS-59C2 (other)
chain: EVQLVESGGSLVQPGGSLRLSCAASGFTFDDYAMSWVRQVPGKGLEWVSSINWSGTHTDYADSVKGRFTISRNNANNTLYLQMNSLKSEDTAVYYCAKNWRDAGTTWFEKSGSAGQGTQVTVSSGGGGSGGGSRDWDFDVFGGGTPVGG
notes: untagged; also called 2D3-9GS-EXP59C2; 2D3-EXP59C2

One assay addresses T1, human serum albumin (human, UniProt P02768 25-609).
T1 construct: also called HSA
The assay can be described thus: phage competition ELISA: phage pre-incubated with 2 µM HSA, captured on coated HSA. As for the experimental part: (§1) Unbound phage was captured by transferring 100 μl of the well mixture to the HSA coated Maxisorp plate and incubating at room temperature for 30 minutes. The plate with captured phage was washed with PBS-0.05% Tween 20 five times. Bound phages were detected with anti-M13 and goat-anti mouse IRDye conjugate. The amount of IRDye bound was measured on Odyssey (LI-COR Biosciences). The ratio of phage binding was calculated by the following equation: fluorescence signal of well with competitor/fluorescence signal of well with no competitor (Table III).
(§2) After respectively three and four selection rounds, monoclonal phage were screened for binding on HSA, in the manner described in Example 2. Clones that bind to HSA (FIGS. 7A to 7C and Table V) were screened in phage competition ELISA, in the manner described in Example 5. The ratio of phage binding was calculated by the following equation: fluorescence signal of well with 2 μM competitor/fluorescence signal of well with no competitor (Table VI).
A general note: In an ELISA, binding on a coated surface is turned into a signal by an enzyme label.
Regarding AARYWDYDVFGGGTPVGG (also called EXP56E4) [PMP56E4], the “Ratio 2 µM/0 µM HSA” value came to 0.82.

As for AARDWDFDVFGGGTPVGG [59C2], the “Ratio 2 µM/0 µM HSA” value turned out to be 0.91.

With AARSWDFDVFGGGTPVGG [59H12], the “Ratio 2 µM/0 µM HSA” value came to 0.87.

With AARYWDFDVFGGGTPVGG [59F2], the “Ratio 2 µM/0 µM HSA” value is 0.69.

In another assay the target is T1, human serum albumin. The assay can be described thus: phage ELISA, 5-fold phage dilutions on coated HSA, anti-M13 detection, near-infrared fluorescence. As for the experimental part: (§3) 5-fold serial dilutions of phage clones (starting from ˜5×10¹¹ phage) were added to 96-well Nunc Maxisorp plates coated with human serum albumin (2 μg/ml in PBS, overnight at 4° C.; plates were blocked with Superblock T20 (Pierce) for 1 h at room temperature). […] The amount of IRDye bound was measured on Odyssey (LI-COR Biosciences). The dilution of phage was plotted against measured near-infrared fluorescence intensity (FIG. 2).
For the molecule AAYYYDYDVFGGGTPGGE [PMP56E2], the binding result is listed as “binds”.

For the molecule AAPYRDYDVFGGGTPRGE [PMP56F2], the binding result was “binds”.

Turning to AASYSDYDVFGGGTDFGP [17D12], the binding result is reported as “binds”.

A further assay deals with T2, von Willebrand factor (human, UniProt P04275 764-2813).
T2 construct: vWF of the human plasma in which the compounds were diluted; multimeric; also called vWF; VWF
Kind of assay: inhibition ELISA: ristocetin-induced binding of plasma vWF to fixed human platelets (glycoprotein Ib), bound vWF detected with anti-VWF-HRP.
Turning to B1, the binding result is “binds”.

Turning to B2, the “IC50 (read off the curve)” value was around 20 nM.

B3: the binding result is recorded as “binds”.

B4: the “IC50 (read off the curve)” value is around 10 nM.

Another assay deals with T1, human serum albumin. Kind of assay: SPR, BIAcore 3000, HSA on CM5 chip. The protocol:
(§4) For this purpose, binding to HSA and CSA was assessed in BIAcore™ 3000, by injecting concentration series of the fusion proteins ranging from 2 μM to 200 nM on a CM5 chip coated with ˜3000 RU HSA or CSA. Coating of the chip (CM5) was performed by amine coupling using NHS/EDC for activation and ethanolamine for deactivation (Biacore amine coupling kit). HBS-EP was used as flow buffer at a rate of […]. 90 μl of sample was injected for 120 s.
(In general: Surface plasmon resonance follows binding to a sensor surface in real time, without labels.)
For B5, the affinity, expressed as Kd, was 991 nM; the koff was 0.00497 s⁻¹; the kon amounted to 5020 M⁻¹ s⁻¹.

For B6, the Kd came out at 571 nM, the koff came to 0.00351 s⁻¹ and the kon came to 6140 M⁻¹ s⁻¹.

B7 showed a Kd of 663 nM, a koff of 0.00304 s⁻¹ and a kon of 4590 M⁻¹ s⁻¹.

Molecule B8 yielded a Kd of 481 nM, a koff of 0.00179 s⁻¹ and a kon of 3730 M⁻¹ s⁻¹.

A further assay addresses T1, human serum albumin. The assay can be described thus: solution binding competition ELISA: phage pre-incubated with 1 µM HSA, captured on coated HSA. The protocol: A competition ELISA was performed to determine the relative binding affinity for the selected phage clones. 96-well Nunc Maxisorp plates were coated with 2 μg/ml HSA in coating buffer at 4° C. Plates were blocked with SuperblockT20 (Pierce) for 1 h at room temperature. The microtiter plates were washed with wash buffer (PBS, 0.05% Tween 20).
as §1
As for AALYDDYDVFGGGTPVGG (also called 01C7; PMP26A3) [PMP56A3], the “Ratio 1 µM/0 µM HSA” value came to 0.47.

For the molecule AAFYDDYDVFGGGTPAGG (also called 01G7) [PMP56H5], the “Ratio 1 µM/0 µM HSA” value is 0.43.

Consider AALYDDYDVFGGGTPAGG [01B3], for which the “Ratio 1 µM/0 µM HSA” value turned out to be 0.42.

The target of a further assay is T3, cynomolgus monkey serum albumin (cynomolgus monkey, UniProt A2V9Z4 25-608).
T3 construct: amine-coupled to a CM5 chip; also called CSA; cynoSA
T3 sequence (A2V9Z4 25-608 limits assumed): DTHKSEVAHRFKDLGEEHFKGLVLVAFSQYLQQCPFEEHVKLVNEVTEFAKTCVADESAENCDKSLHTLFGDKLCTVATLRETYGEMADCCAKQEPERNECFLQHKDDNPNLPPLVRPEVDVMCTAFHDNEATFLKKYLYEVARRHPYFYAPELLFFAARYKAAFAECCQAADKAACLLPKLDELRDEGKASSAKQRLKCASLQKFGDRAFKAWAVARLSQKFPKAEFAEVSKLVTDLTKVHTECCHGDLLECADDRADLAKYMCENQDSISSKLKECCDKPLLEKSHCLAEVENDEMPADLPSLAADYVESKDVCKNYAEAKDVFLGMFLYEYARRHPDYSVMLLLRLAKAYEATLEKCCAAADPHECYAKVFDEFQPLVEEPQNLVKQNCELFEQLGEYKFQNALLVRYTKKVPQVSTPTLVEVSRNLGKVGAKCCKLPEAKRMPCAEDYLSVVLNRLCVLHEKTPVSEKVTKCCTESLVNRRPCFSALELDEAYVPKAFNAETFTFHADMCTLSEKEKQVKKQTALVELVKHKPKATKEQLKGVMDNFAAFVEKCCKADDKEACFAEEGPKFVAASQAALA
Kind of assay: SPR, BIAcore 3000, CSA on CM5 chip. As for the experimental part:
as §4
For the molecule B5, binding was put at a Kd of 2110 nM and the kon amounted to 4010 M⁻¹ s⁻¹.

B6: the Kd stood at 1040 nM and the kon was determined as 4850 M⁻¹ s⁻¹.

Take B7: binding was put at a Kd of 1280 nM and the kon was determined as 3450 M⁻¹ s⁻¹.

B8 registered a Kd of 775 nM and a kon of 2750 M⁻¹ s⁻¹.

Another assay has as its target T1, human serum albumin. Kind of assay: phage ELISA, phage titration on coated HSA, near-infrared fluorescence. The protocol: as §3, §2
Consider AARYWDYDVFGGGSPVGG [60G5], for which the binding result was “binds”.

Turning to AARYWDYDVFGGGSQVGG [60F1], the binding result is listed as “binds”.

The next assay addresses T3, cynomolgus monkey serum albumin. Kind of assay: SPR, BIAcore 3000, CSA on CM5 chip. This is another data set of the same source. The protocol: The binding was determined in BIAcore™ 3000, by injecting concentration series of the fusion proteins ranging from 2 μM to 200 nM on a CM5 chip coated with ˜3000 RU HSA or CSA. Coating of the chip (CM5) was performed by amine coupling using NHS/EDC for activation and ethanolamine for deactivation (Biacore amine coupling kit). HBS-EP was used as flow buffer at a rate of […]. 90 μl of sample was injected for 120 s.
Molecule B9 showed a Kd of 495 nM and an on-rate (kon) of 17100 M⁻¹ s⁻¹.

The molecule B10 came in with a Kd of 276 nM and an on-rate constant (kon) of 8980 M⁻¹ s⁻¹.
